In paper PMC9953004, “Scandium-44 Radiolabeled Peptide and Peptidomimetic Conjugates Targeting Neuropilin-1 Co-Receptor as Potential Tools for Cancer Diagnosis and Anti-Angiogenic Therapy” (Biomedicines, 2023):
Primed or numbered codes have the meaning given here. Where no end group is shown, it is not given here. Side-chain parts run from the residue outwards. [ ]: non-standard residue; d: D form. The star is where a group is joined. DOTA″ = DOTA chelator, carrying Sc, O=C([O-])CN1CCN(CC(=O)[O-])CCN(CC(=O)*)CCN(CC(=O)[O-])CC1.[Sc+3]; DOTA′ = DOTA-Sc chelate, O=C([O-])CN1CCN(CC(=O)[O-])CCN(CC(=O)*)CCN(CC(=O)[O-])CC1.[Sc+3]; hArg = N=C(N)NCCCC[C@H](N)C(=O)O; Dab = NCC[C@H](N)C(=O)O; Ahx = NCCCCCC(=O)O

B1: branched peptidomimetic Lys(hArg)-Dab-Pro-Arg (K4R) (peptide)
chain: K(hArg)[Dab]PR
B2: Lys(hArg)-Dab(Ahx-DOTA-Sc)-Pro-Arg (peptide)
chain: K(hArg)[Dab]([Ahx-DOTA″])PR
modifications: also: Sc chelated by DOTA
B3: retro-inverso isomer of A7R (DArg-DPro-DPro-DLeu-DTrp-DThr-DAla) (peptide)
peptide: [dR][dP][dP][dL][dW][dT][dA]
notes: also called ^DR7A
B4: Ala-Thr-Trp-Leu-Pro-Pro-Arg (A7R) heptapeptide (peptide)
peptide: ATWLPPR
notes: found by a mutated phage library screening; free C-terminal carboxyl group; also called ^LA7R; source: synthetic peptide (SPPS, Fmoc chemistry)
B5: Sc-DOTA-Ahx-A7R (peptide)
peptide: {DOTA″-Ahx}-ATWLPPR
modifications: also: Sc chelated by DOTA
notes: A7R peptide with linker and chelator on the N-terminus; also called Sc-1; source: synthetic peptide conjugate (SPPS), complexed with ScCl3
B6: Lys(DOTA-Sc)-A7R (peptide)
peptide: H-K(DOTA′)ATWLPPR
modifications: also: DOTA chelating Sc
notes: Lys(DOTA)-Ala-Thr-Trp-Leu-Pro-Pro-Arg; the Lys is a linker before A7R; also called Sc-1bis; source: bought: CASLO ApS (conjugate 1bis), complexed with ScCl3

Biological target: T1, Recombinant human NRP-1 (neuropilin-1 co-receptor) (human, UniProt O14786 22-856)
T1 construct: neuropilin-1, human, recombinant; It is probably a soluble extracellular construct (surmise); source: bought: BioLegend
T1 sequence (looked up): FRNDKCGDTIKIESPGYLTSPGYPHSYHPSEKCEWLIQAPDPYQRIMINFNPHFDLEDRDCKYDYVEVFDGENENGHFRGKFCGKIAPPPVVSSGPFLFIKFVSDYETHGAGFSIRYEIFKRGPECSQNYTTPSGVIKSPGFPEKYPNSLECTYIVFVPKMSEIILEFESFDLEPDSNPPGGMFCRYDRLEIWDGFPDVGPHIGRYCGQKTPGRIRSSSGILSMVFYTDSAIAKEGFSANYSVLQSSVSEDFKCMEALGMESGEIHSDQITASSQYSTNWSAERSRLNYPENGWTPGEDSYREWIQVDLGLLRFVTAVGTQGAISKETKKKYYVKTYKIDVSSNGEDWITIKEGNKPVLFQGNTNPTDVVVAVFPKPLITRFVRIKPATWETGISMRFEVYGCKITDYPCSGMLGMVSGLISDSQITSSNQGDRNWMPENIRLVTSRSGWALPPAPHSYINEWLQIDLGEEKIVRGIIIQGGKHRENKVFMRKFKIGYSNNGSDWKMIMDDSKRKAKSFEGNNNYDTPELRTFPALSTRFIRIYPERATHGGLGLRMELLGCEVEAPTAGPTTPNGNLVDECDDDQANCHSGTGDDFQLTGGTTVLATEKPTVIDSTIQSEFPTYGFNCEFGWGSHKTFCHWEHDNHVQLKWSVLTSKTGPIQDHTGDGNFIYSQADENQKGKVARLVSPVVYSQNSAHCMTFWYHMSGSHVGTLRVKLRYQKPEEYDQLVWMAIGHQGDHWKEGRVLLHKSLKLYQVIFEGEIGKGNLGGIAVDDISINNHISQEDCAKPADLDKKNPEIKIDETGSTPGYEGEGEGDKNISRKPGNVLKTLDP
Experiment: ELISA; competitive; recombinant human NRP-1 coated on a 96-well plate (200 ng/well, overnight, 4 °C), blocked with 0.5% BSA in PBS; 50 µL compound in PBS (100, 50, 25, 12.5, 6.75 µM) plus 50 µL (400 ng/mL) human (bt)-VEGF-A165 in PBS with 4 µg/mL heparin; 2 h at room temperature; streptavidin-HRP, chemiluminescence; IC50 by nonlinear regression, mean ± SD of three experiments
Conditions: both partners purified

Binder	IC50 [µM]
B1	4.83
B2	17.9
B3	> 100
B4	17.5
B5	22.5
B6	18.1
